Biological target: T1, recombinant Src (UniProt P12931 1-536)
T1 construct: the printed kinase domain limits 249-536 fit the 536-residue human protein; the tag on Src may differ between the three pull-downs; also called purified Src; source: recombinant, purified
Assay: pull-down; in vitro GST pull-down with recombinant or purified proteins; which partner bore GST is not told
Details: both partners purified

B1: purified NMT1 (enzyme, UniProt P30419 1-496, looked up)
chain: MADESETAVKPPAPPLPQMMEGNGNGHEHCSDCENEEDNSYNRGGLSPANDTGAKKKKKKQKKKKEKGSETDSAQDQPVKMNSLPAERIQEIQKAIELFSVGQGPAKTMEEASKRSYQFWDTQPVPKLGEVVNTHGPVEPDKDNIRQEPYTLPQGFTWDALDLGDRGVLKELYTLLNENYVEDDDNMFRFDYSPEFLLWALRPPGWLPQWHCGVRVVSSRKLVGFISAIPANIHIYDTEKKMVEINFLCVHKKLRSKRVAPVLIREITRRVHLEGIFQAVYTAGVVLPKPVGTCRYWHRSLNPRKLIEVKFSHLSRNMTMQRTMKLYRLPETPKTAGLRPMETKDIPVVHQLLTRYLKQFHLTPVMSQEEVEHWFYPQENIIDTFVVENANGEVTDFLSFYTLPSTIMNHPTHKSLKAAYSFYNVHTQTPLLDLMSDALVLAKMKGFDVFNALDLMENKTFLEKLKFGIGDGNLQYYLYNWKCPSMGAEKVGLVLQ
notes: Purified NMT1 protein of the GST pull-down with Src; source: purified
B1: binds.
